Source: the supplement of paper PMC10126150
± gives the standard deviation of the averaged measurements.

test system: ATP; experiment: switch fluorescence ratio, 500 uM ATP over buffer (Cy3 cluster intensity, sum of 5 cycles each) (fold (ratio)); higher = stronger signal-on switching upon ATP binding; sequences stand for … in TCGTCGGCAGCGTCAGATGTGTATAAGAGACAGTTTTTTTTTTTTTTTTTTTTTTTTT…TC; conditions: aptamer strand: ATP DNA aptamer (quencher-CACCTGGGGGAGTATTGCGGAGGAAGG + anchor), 100 nM annealed; ATP concentration: 500 uM
How it was run: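 Imaging in selection buffer was followed by imaging after 15 min with 500 uM ATP at 22 °C, for Cy3-labelled switching-strand clusters annealed to 100 nM quencher-labelled ATP aptamer on a modified Illumina MiSeq flow-cell. Five of these buffer/ATP cycles ran, separated by NaOH stripping and re-annealing. The fluorescence ratio per cluster is summed target-cycle over summed buffer-cycle Cy3 intensity, averaged per switch-domain sequence; clusters outside 100-1000 RFU were removed.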
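Further: ATP exposure 15 min at 22 °C before imaging.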

Sequence | switch fluorescence ratio
GGAGAATTTA | 1.02 ± 0.034
AGATTTTGTT | 0.975 ± 0.017
TATGAAGAAG | 0.994 ± 0.054
GTTGGTAAGA | 0.9979 ± 0.0036
TTGGTTATGT | 0.969 ± 0.017
CGTTTCCTTT | 0.993 ± 0.024
TACTGGGTCG | 1.01 ± 0.043
ATATACTAAT | 1.02 ± 0.038
GCAGGGATTG | 0.9734 ± 0.0058
TACCGGGGTC | 1 ± 0.042
CAAGTGGCGG | 0.969 ± 0.016
ATGGCTTTTG | 1.02 ± 0.037
AAGTCCGGGA | 0.998 ± 0.035
CTTAGGGATT | 0.987 ± 0.031
GCACGGGGCG | 1.03 ± 0.034
AAATTCGGTT | 0.99 ± 0.013
ATCTTCCAGG | 1.614 ± 0.0089
TTGAAGGGGT | 1.08 ± 0.1
ATTTATCGGG | 1 ± 0.027
CCAGGCATGT | 1.05 ± 0.012
TTCGGGACCC | 1.08 ± 0.1
AGCCTATTGT | 0.972 ± 0.035
TGGGGTTAAA | 0.997 ± 0.016

Sequence | switch fluorescence ratio
TAAGCGGGTC | 1 ± 0.018
AGTCGACTTT | 0.997 ± 0.011
CAAGCCGTGT | 1.02 ± 0.036
GCCCTGGGTC | 1.02 ± 0.06
TTTACGGAGA | 1.03 ± 0.041
TATGGAAACG | 0.981 ± 0.011
TGAGTTGGGA | 1.002 ± 0.0057
CGACGGGGCT | 1.13 ± 0.049
GCTAAATGTT | 0.988 ± 0.015
ATGGTTTTAT | 1.01 ± 0.045
GTTTACAGGC | 0.9875 ± 0.0092
TTACAAGTGT | 0.993 ± 0.016
TTTTAAGAAT | 1.005 ± 0.0078
AACGTACGTT | 1.14 ± 0.015
ATGCTATCGT | 1.02 ± 0.014
TGTAACTCAT | 1 ± 0.011
ACCTCATTTG | 1.067 ± 0.0049
GTTAGGCCTG | 0.969 ± 0.013
TAGGAAAGTG | 1.03 ± 0.054
GAGCGGTATC | 0.997 ± 0.043
TATTAATTTT | 1.02 ± 0.015
CTCAGGTATC | 1.11 ± 0.012
AAACAGTTAT | 1.03 ± 0.042

Sequence | switch fluorescence ratio
TAGGAGCGAT | 1.15 ± 0.031
TCCATGGGAC | 1.03 ± 0.041
CGGTCTATTG | 1.002 ± 0.0098
ATTTGGGGAC | 0.98 ± 0.016
TGGCGGGGTA | 1.02 ± 0.034
TCTTTTGGGT | 0.9777 ± 0.0063
TTTCCTAGTT | 1.032 ± 0.0028
TTAATTTGTT | 0.988 ± 0.042
GGTTTTGGGG | 1.01 ± 0.026
TTGGGCTCTG | 0.988 ± 0.018
GATTGGTAAT | 0.996 ± 0.028
AACGAAGTCG | 1 ± 0.015
CGCTTAAGAG | 1.02 ± 0.014
CAGAATGGGG | 0.998 ± 0.014
GACTTTGTGC | 0.9772 ± 0.0022
AGGCCGTCCT | 1.02 ± 0.1
CATGGCTAGT | 1 ± 0.011
AACCCAAGGG | 1.09 ± 0.055
GATGGAGATA | 0.936 ± 0.06
TTAAACCCGC | 1.08 ± 0.019
AGGGGTATGC | 0.979 ± 0.033
TGTTTGTAGA | 1.03 ± 0.018
AATATGGCGT | 1.01 ± 0.029

Sequence | switch fluorescence ratio
CGTTCAATGT | 1.026 ± 0.0085
AATTCCTCAT | 1.04 ± 0.024
CCTATTCTGA | 0.97 ± 0.068
CACGAGAACT | 1.1 ± 0.024
GCTAGGGGTG | 1.07 ± 0.055
GCGGGGGTCA | 0.974 ± 0.05
CAAGTTAATG | 0.97 ± 0.041
GCATTGGTCA | 1.027 ± 0.0076
TCTTAGCATA | 1.18 ± 0.13
ATACATATTT | 1.035 ± 0.0075
TGTTTTAACT | 1.01 ± 0.017
TATTGGTGCA | 0.967 ± 0.017
GCCATTGTGG | 0.99 ± 0.019
TCTCGCCAAG | 1.06 ± 0.019
GGGGTTTACT | 1.01 ± 0.021
TCATGGGGGG | 1.007 ± 0.01
GAAGGGAGGA | 1.03 ± 0.077
GGGGGGCTGT | 0.973 ± 0.047
GAAGGGGCAG | 0.97 ± 0.014
AGTATAGGGT | 0.972 ± 0.029
AATAAAAGGA | 0.997 ± 0.013
TCGTGCTGGG | 1 ± 0.067
TTGTTACTGG | 1.01 ± 0.03

Sequence | switch fluorescence ratio
AGTGGCCGTC | 0.974 ± 0.051
TTGGGGGAGC | 0.976 ± 0.018
GTAATATTAT | 0.974 ± 0.032
ACAGACTGAA | 1.16 ± 0.019
AGGCGGAGTT | 0.97011 ± 0.00078
CTCCGTTTTT | 2.88 ± 0.62
AATGGGGTAA | 0.995 ± 0.014
TGATTGGTTT | 1 ± 0.011
CTGGGAAGTG | 0.978 ± 0.003
TAAAGTGGGC | 1.04 ± 0.038
AATGGTTTTT | 0.991 ± 0.031
GTCAGTCTGA | 0.9805 ± 0.003
GATATGCGTC | 1.04 ± 0.0086
ACTCTACTTG | 1.42 ± 0.16
GAAACGGTGT | 1.02 ± 0.031
TCTCTTATGA | 0.997 ± 0.011
CAAGTCGTTT | 1.017 ± 0.0023
TGTTAGTGGT | 1.01 ± 0.023
TCAGGACGGA | 1.018 ± 0.0015
CCCATGGGGG | 1.01 ± 0.028
AGGGTAGCGA | 1.03 ± 0.017
TTGTGGCGCC | 0.958 ± 0.021
AGCTCGGCGC | 1.02 ± 0.064

Sequence | switch fluorescence ratio
TGGCGAGTCC | 0.973 ± 0.015
GGGCTTTGTG | 1 ± 0.01
TTTTGTCTGT | 1.01 ± 0.016
TAGCTCGGCT | 0.95364 ± 0.00022
TCAATGAAGC | 0.988 ± 0.012
TAAAGGTTGA | 1.01 ± 0.012
AAAAGAGGGA | 0.999 ± 0.043
ACTGGGGTGT | 1.07 ± 0.0045
TCAGAGGAAT | 1.01 ± 0.0089
TGCGGTTTTT | 0.998 ± 0.02
GATGAGCTGT | 1.03 ± 0.046
TACGGTCAGC | 1.03 ± 0.016
GCGATATGTT | 1.03 ± 0.043
ATGGGCAGTG | 1.02 ± 0.015
ATTAAAAATG | 1.02 ± 0.042
TGTCCTCAGC | 1.51 ± 0.14
CTTGTTTGAC | 0.988 ± 0.044
TAAAGTTACG | 1.06 ± 0.032
CACGGCTCGC | 1.04 ± 0.015
TCGTGGGTGC | 1.01 ± 0.023
AACTTGTTTT | 1.02 ± 0.032
TGCCATTGGG | 1.08 ± 0.12
TTTCGTGGAC | 1.08 ± 0.015

Sequence | switch fluorescence ratio
CCGGATTTTG | 0.981 ± 0.012
AATTTGACCC | 0.9966 ± 0.0026
TCTGGGCCTT | 0.999 ± 0.023
TATAGATTGG | 0.985 ± 0.019
TTTATTTTGG | 0.995 ± 0.053
CATATACATT | 1.056 ± 0.0039
GTCGGTATTC | 0.9947 ± 0.0081
GGGGCGGGA | 1.08 ± 0.016
TTAAAGCGGG | 1.01 ± 0.012
GCAGGGGGGG | 1.05 ± 0.054
ACTCACATAG | 1.217 ± 0.0056
GGTTGCATCA | 0.994 ± 0.032
TTCCGGGCCC | 1.16 ± 0.041
CAGATTGCTC | 0.982 ± 0.037
AATTCCTCAG | 1.43 ± 0.1
TGGTGGCACG | 0.965 ± 0.011
TGGTCCAGG | 1.15 ± 0.14
CGTGCCAGCA | 0.983 ± 0.045
GGTTCTGAGC | 0.986 ± 0.02
